Our source for the abundance fitness values is the Human Domainome abundance scans (Beltran et al. 2025).

± gives the uncertainty stated by the source.

B1: Nucleolar transcription factor 1, residues 408 to 469; numbered along this chain, P17480 (parent)
chain: KRPVSAMFIFSEEKRRQLQEERPELSESELTRLLARMWNDLSEKKKAKYKAREAALKAQSER

The variants in the data set derive from B1. Put plainly: abundance fitness (aPCA) (normalised: wild type 0, dead -1); higher = more abundant; growth selection in yeast, the domain comes from the species named. The settings on record: Homo sapiens.
Turning to KRPVSAMFIFSEEKRRQLQEEREELSESELTRLLARMWNDLSEKKKAKYKAREAALKAQSER, the abundance fitness is -0.357 ± 0.068.

On to KRPVSAMFIFSEEKRRQLQEERWELSESELTRLLARMWNDLSEKKKAKYKAREAALKAQSER, for which the abundance fitness is -0.588 ± 0.068.

On to KRPVSAMFIFSEEKRRQLQEERVELSESELTRLLARMWNDLSEKKKAKYKAREAALKAQSER, for which the abundance fitness is -0.244 ± 0.067.

With KRPVSAMFIFSEEKRRQLQEERDELSESELTRLLARMWNDLSEKKKAKYKAREAALKAQSER, the abundance fitness is -0.431 ± 0.29.

Take KRPVSAMFIFSEEKRRQLQEERRELSESELTRLLARMWNDLSEKKKAKYKAREAALKAQSER: the abundance fitness is -0.252 ± 0.057.

With KRPVSAMFIFSEEKRRQLQEERMELSESELTRLLARMWNDLSEKKKAKYKAREAALKAQSER, the abundance fitness was -0.291 ± 0.071.

As to KRPVSAMFIFSEEKRRQLQEERAELSESELTRLLARMWNDLSEKKKAKYKAREAALKAQSER, the abundance fitness was -0.256 ± 0.07.

For the variant KRPVSAMFIFSEEKRRQLQEERHELSESELTRLLARMWNDLSEKKKAKYKAREAALKAQSER, the abundance fitness was -0.267 ± 0.1.

Take KRPVSAMFIFSEEKRRQLQEERNELSESELTRLLARMWNDLSEKKKAKYKAREAALKAQSER: the abundance fitness was -0.319 ± 0.12.

Take KRPVSAMFIFSEEKRRQLQEERIELSESELTRLLARMWNDLSEKKKAKYKAREAALKAQSER: the abundance fitness is -0.187 ± 0.09.

Turning to KRPVSAMFIFSEEKRRQLQEERYELSESELTRLLARMWNDLSEKKKAKYKAREAALKAQSER, the abundance fitness is -0.402 ± 0.13.

As for KRPVSAMFIFSEEKRRQLQEERTELSESELTRLLARMWNDLSEKKKAKYKAREAALKAQSER, the abundance fitness was -0.218 ± 0.068.

As for KRPVSAMFIFSEEKRRQLQEERPILSESELTRLLARMWNDLSEKKKAKYKAREAALKAQSER, the abundance fitness is -0.544 ± 0.085.

Turning to KRPVSAMFIFSEEKRRQLQEERPLLSESELTRLLARMWNDLSEKKKAKYKAREAALKAQSER, the abundance fitness is -0.209 ± 0.049.

Regarding KRPVSAMFIFSEEKRRQLQEERPGLSESELTRLLARMWNDLSEKKKAKYKAREAALKAQSER, the abundance fitness was -0.069 ± 0.05.

KRPVSAMFIFSEEKRRQLQEERPPLSESELTRLLARMWNDLSEKKKAKYKAREAALKAQSER: the abundance fitness was -0.451 ± 0.093.

Turning to KRPVSAMFIFSEEKRRQLQEERPTLSESELTRLLARMWNDLSEKKKAKYKAREAALKAQSER, the abundance fitness is -0.123 ± 0.057.

On to KRPVSAMFIFSEEKRRQLQEERPSLSESELTRLLARMWNDLSEKKKAKYKAREAALKAQSER, for which the abundance fitness is -0.147 ± 0.05.

In the case of KRPVSAMFIFSEEKRRQLQEERPNLSESELTRLLARMWNDLSEKKKAKYKAREAALKAQSER, the abundance fitness is -0.199 ± 0.16.

For KRPVSAMFIFSEEKRRQLQEERPVLSESELTRLLARMWNDLSEKKKAKYKAREAALKAQSER, the abundance fitness was -0.401 ± 0.057.

In the case of KRPVSAMFIFSEEKRRQLQEERPWLSESELTRLLARMWNDLSEKKKAKYKAREAALKAQSER, the abundance fitness was -0.083 ± 0.064.

Turning to KRPVSAMFIFSEEKRRQLQEERPQLSESELTRLLARMWNDLSEKKKAKYKAREAALKAQSER, the abundance fitness was -0.151 ± 0.1.

Turning to KRPVSAMFIFSEEKRRQLQEERPHLSESELTRLLARMWNDLSEKKKAKYKAREAALKAQSER, the abundance fitness was -0.074 ± 0.11.

As for KRPVSAMFIFSEEKRRQLQEERPFLSESELTRLLARMWNDLSEKKKAKYKAREAALKAQSER, the abundance fitness is -0.144 ± 0.085.

On to KRPVSAMFIFSEEKRRQLQEERPALSESELTRLLARMWNDLSEKKKAKYKAREAALKAQSER, for which the abundance fitness is -0.114 ± 0.059.

Regarding KRPVSAMFIFSEEKRRQLQEERPRLSESELTRLLARMWNDLSEKKKAKYKAREAALKAQSER, the abundance fitness is -0.225 ± 0.06.

As for KRPVSAMFIFSEEKRRQLQEERPCLSESELTRLLARMWNDLSEKKKAKYKAREAALKAQSER, the abundance fitness is -0.225 ± 0.14.

For the variant KRPVSAMFIFSEEKRRQLQEERPMLSESELTRLLARMWNDLSEKKKAKYKAREAALKAQSER, the abundance fitness is -0.148 ± 0.083.

For the variant KRPVSAMFIFSEEKRRQLQEERPDLSESELTRLLARMWNDLSEKKKAKYKAREAALKAQSER, the abundance fitness turned out to be 0.03 ± 0.099.

As to KRPVSAMFIFSEEKRRQLQEERPERSESELTRLLARMWNDLSEKKKAKYKAREAALKAQSER, the abundance fitness was -0.325 ± 0.054.

With KRPVSAMFIFSEEKRRQLQEERPEGSESELTRLLARMWNDLSEKKKAKYKAREAALKAQSER, the abundance fitness was -0.946 ± 0.067.

As to KRPVSAMFIFSEEKRRQLQEERPECSESELTRLLARMWNDLSEKKKAKYKAREAALKAQSER, the abundance fitness is -0.134 ± 0.072.

As for KRPVSAMFIFSEEKRRQLQEERPEDSESELTRLLARMWNDLSEKKKAKYKAREAALKAQSER, the abundance fitness was -0.633 ± 0.1.

Consider KRPVSAMFIFSEEKRRQLQEERPEVSESELTRLLARMWNDLSEKKKAKYKAREAALKAQSER, for which the abundance fitness is -0.155 ± 0.054.

On to KRPVSAMFIFSEEKRRQLQEERPEASESELTRLLARMWNDLSEKKKAKYKAREAALKAQSER, for which the abundance fitness was -0.106 ± 0.099.

With KRPVSAMFIFSEEKRRQLQEERPENSESELTRLLARMWNDLSEKKKAKYKAREAALKAQSER, the abundance fitness is -0.646 ± 0.13.

Consider KRPVSAMFIFSEEKRRQLQEERPETSESELTRLLARMWNDLSEKKKAKYKAREAALKAQSER, for which the abundance fitness is -0.423 ± 0.082.

With KRPVSAMFIFSEEKRRQLQEERPEESESELTRLLARMWNDLSEKKKAKYKAREAALKAQSER, the abundance fitness was -0.501 ± 0.076.

Take KRPVSAMFIFSEEKRRQLQEERPEMSESELTRLLARMWNDLSEKKKAKYKAREAALKAQSER: the abundance fitness was -0.011 ± 0.055.

Regarding KRPVSAMFIFSEEKRRQLQEERPEKSESELTRLLARMWNDLSEKKKAKYKAREAALKAQSER, the abundance fitness was -0.385 ± 0.082.

Consider KRPVSAMFIFSEEKRRQLQEERPEQSESELTRLLARMWNDLSEKKKAKYKAREAALKAQSER, for which the abundance fitness was -0.477 ± 0.08.

Take KRPVSAMFIFSEEKRRQLQEERPEYSESELTRLLARMWNDLSEKKKAKYKAREAALKAQSER: the abundance fitness was -0.173 ± 0.16.

On to KRPVSAMFIFSEEKRRQLQEERPELSEAELTRLLARMWNDLSEKKKAKYKAREAALKAQSER, for which the abundance fitness was -0.053 ± 0.058.
